# Results published in the DeepSol protein solubility set.
# Assay: soluble on expression in E. coli; label from the status in PepcDB or PDB records
row,Sequence,soluble on expression in E. coli
1,MEVIRSQKRTVSNDVVSTPTLPLYLTAPHMEVRLEEFELFAIDRLRVLKGVSDGLARARNPNEMDDLVETLWKEHMRLSNVSEMINKDIISHFVLRLVYCRSDELKKWFLSMETALFRHRFRLKKIEEQRAIVGEFGLPYKAVIGAELESLKERLGLVARSHGQISSDVENIYYKVPFEEVPDLVASRRVLLQKGFAFVAGTQLVSLVVTQFRSHLSKALILTNRKWTTTIREREKDRLTPIVEALSTSYLGPDYSQSNEYADISLKDIDQVSKSSFPLCMRHLFEKLREDHHLKHGGRMQLGLFLKLDDALAFWREEFTKKVGSERFDKEYAYAIRHNYGKEGKRTDYTPYACSKIITSAPGAGDHHGCPYRHFSEDNLKAALSRMGLSSRGMEDVMDKVRNRHYQLACTLTFEAVYGTSCDTGINHPNQYFEESQKILKSKTPAAPV,soluble
2,MSAKKERVDVLLVERGLIETREKAKRAIMAGLVYANEMRLDKPGEKIPQDTEITVKGQVMPYVSRGGYKLEKALETFHLDLQDKVMIDIGSSTGGFTDCALQNGAKLSYALDVGYNQLAWKLRQDERVVVMERTNFRYVTPADLERGLPQFASIDVSFISLKLILPVLKTMLMPNGDVAALIKPQFEAGREQVGKKGIVRDRKVHEAVVEMIVDFAIKEGYDVEGLTFSPITGGDGNIEFLIHLKWHGERENGENHSPVSVEQVVTEAHDVLKQKGKGE,not soluble
3,METHLGWARSLEAVLSDRSALDAFQEWLIEYSSPQYLDLFFAIRAYERMALEGKPEKSQLSKSIYSKFLSSRTGNCEAIPKHFRAPIGEKLRHGTELEDRVFSHCSNFVQEFLRRQHEEFVGSEEFIEAFNKMSSTTADQLPGGSAHHSSHQNTMRRSSGTTSRKSAAQIATQLTAEALLKSKHDRHSKLGETKLEKMYPPTRQPYVCNATTSHNDSAVSSTFSGDTPEAHRMHSNRLRHIRDEQARENHGTMTLPRVEKASVDGQQWDHSSESGRRNFAMEITRKLLRHIDKVKLNDEMEKRIDDIEECRYTTIDMVNGTEPNDDLGKIDEDEELDDYLKMKMTDDSQKGSTNRSPKGPAGEPNKSGEGSKNTTLSPTNRAPAQLHNTIRVPRRKDYPRDTSASLKSHRHHQIDTNRMMSQSMCAPSYSSASSSYSRDSFAPAPTTRVNFAPGSSKSSQFYDSSGIGSMAPSAFSATSSLDYKDRRQHRKAPTPKKHSKIGKNLSNLITISYLGTDKIPVVTHVPNDGPMTLAEFKRHFALPNGAHQLFFKTECEDGSAPFQLLLIKDEHHLLPVFEGRIAAELR,not soluble
4,MTEPDVAGAPASKPEPASTGAASAAQLSGYSRVLLKLGGEMFGGGQVGLDPDVVAQVARQIADVVRGGVQIAVVIGGGNFFRGAQLQQLGMERTRSDYMGMLGTVMNSLALQDFLEKEGIVTRVQTAITMGQVAEPYLPLRAVRHLEKGRVVIFGAGMGLPYFSTDTTAAQRALEIGADVVLMAKAVDGVFAEDPRVNPEAELLTAVSHREVLDRGLRVADATAFSLCMDNGMPILVFNLLTDGNIARAVRGEKIGTLVTT,soluble
5,MELHIWPSDFGLPTIDVVSLQFLACSKMCASPVRVIQSTRPWRSPSGELPMVAQTEGEAKPVTDFEKFVDILKKCGQDVVIDADLTTIEKAQLDAFSCYLHHNLYPAVMHTFWTDELNYNTVTQYWYASHLHFPYNLYYLEKRRKKALRLLAGKNDTEILKEAFMALNTLSTKLGDNKFFCGNKPTSLDALVFGYLAPLLRVPLPNDRLQVQLSACPNLVRFVETVSSIYLPLGEDELKRQQANRKMWQSRISKAKADKEAAKTTEEASESLPEEPPMRDAILFTLGALTLSLVFAIHTGLIQVSVEEEISE,not soluble
6,MAPQPFDIDTPSLRVFLPAPELATGRAIVACPGGGYGGLAVNHEGYDWAPYFNKQGIALIVLKYRMPHGDRTLPISDAEAAMKMARDSADVWNLNPYDIGIMGSSAGGHLASTIATHTRPELRPNFQILFYPVITMDKSYTHIGSHDNLLGKDAFAELETEFSNEKQVTKETPRAFIAYSDDDKTVPPANGVNYYLGLHKNHVPAVLHIYASGGHGWGIRENFIYLEHHHHHH,not soluble
7,MDKESVDTLFGMGLTAYQAKDYTKAIHALEHLREHDPSYTTLYSYLAKSYEENGEPEKAIAVLRDGLTQDEFNKEMFLEAGKLAVTLRLPEEAEEFYRQAIVLDEEFSEAIMQLNKLLLAKENYEGVIELVEGLGEEVISEPQIFWDVSVAYQETEQYNKAKANYELAYPHFTNNPTFLKEYGLFLREEGEHAKSQEVLRSYLELEPEDTEILSLFDLEHHHHHH,soluble
8,MTENVVCTGAVNAVKEVWEKRIKKLNEDLKREKEFQHKLVRIWEERVSLTKLREKVTREDGRVILKIEKEEWKTLPSSLLKLNQLQEWQLHRTGLLKIPEFIGRFQNLIVLDLSRNTISEIPPGIGLLTRLQELILSYNKIKTVPKELSNCASLEKLELAVNRDICDLPQELSNLLKLTHLDLSMNDFTTIPLAVLNMPALEWLDMGSNKLEQLPDTIERMQNLHTLWLQRNEITCLPQTISNMKNLGTLVLSNNKLQDIPVCMEEMANLRFVNFRDNPLKLKVSLPPSEGTDEEEERELFGLQFMHTYIQESRRRADHQVNGSTTLPISINTDG,soluble
9,MAEPTAKAAPYENLMVPSPSMGRDIPVAFLAGGPHAVYLLDAFNAGPDVSNWVTAGNAMNTLAGKGISVVAPAGGAYSMYTNWEQDGSKQWDTFLSAELPDWLAANRGLAPGGHAAVGAAQGGYGAMALAAFHPDRFGFAGSMSGFLYPSNTTTNGAIAAGMQQFGGVDTNGMWGAPQLGRWKWHDPWVHASLLAQNNTRVWVWSPTNPGASDPAAMIGQAAEAMGNSRMFYNQYRSVGGHNGHFDFPASGDNGWGSWAPQLGAMSGDIVGAIRHHHHHH,soluble
10,MAHHHHHHMSAPTALTVPRRSASDAALADATRRELEEEMGRSDKPEQPTPPAGWQVVRKPGTCTFDLTKSFEGEDLVVRYSTNQDSDKANSHNIFVYITQKNGQTMQADLSIEEGELVLNNIRFYDEAALAKDTGAEAEAKRNELYTGPLVHELDYDLLNCVMTYLEKRGVDEKLGEFVVLYSFWAEQQDYEAWLTTMNKFAS,soluble
11,MGSDKIHHHHHHMRLPQKMFKIDTYLSPGEAFHFVRKELSEASPVLEHDHDYYELFLIQQGQVYHWINGLEEMLEPGHMVFVRPSDRHALQGAPGTGAKILNVMFRTQTAAHLVTRYADVFGGRFFWQPGPLPVTLRLHGPQRERAINSMLTLDTSFRNLARIELFLLSVMTHVLDTGEIVDGRAPGWLLQACHAAREPRVFRQGADGFLHAAGRSQAHVCRQARRYLGLSPTQYVNRIRIQHAAMLLAGTERGLPDIAADCGFENLSYFHRLFREQYGTTPRGYRHRHVRPIAPL,not soluble
12,MRLYLLAFLALFGMNAMAADNWKAFPYDQSAYDYPGDKLKEAWPRLTRGFGDYPYPDADWVVNMATAHPDALEKTVKAGTGFTGKPEEAAQYAARLQDVWRLLFRGDYAKAKEQGLALGVGGQVPAMFAQVLYAMFLAPGQAEKQRLLEEVIDYTEQAGPLVKADIVAQFGSVYAKARLAEELSVPVVLKRGYTSEIPKELDALLARQPNQPFALALYGGYEAGVIRKVGKLVGKMTYGVSADKMEQYFARSFRQANDLPIGHYEYANALTYVYGDDEREKAIAQLKQAVAIKPINAMEALEVAHAKKLLAGFEQNTAQR,not soluble
13,GPLGSEEEQFALALKMSEQEAREVNNQEEKEEELLRKAIAESLNS,soluble
14,MSRPRKRLAGTSGSDKGLSGKRTKTENSGEALAKVEDSNPQKTSATKNCLKNLSSHWLMKSEPESRLEKGVDVKFSIEDLKAQPKQTTCWDGVRNYQARNFLRAMKLGEEAFFYHSNCKEPGIAGLMKIVKEAYPDHTQFEKNNPHYDPSSKEDNPKWSMVDVQFVRMMKRFIPLAELKSYHQAHKATGGPLKNMVLFTRQRLSIQPLTQEEFDFVLSLEEKEPS,soluble
15,IPVDLTWDLEAIFSTDEEWEKEFNEVKGLIPSLVQFKGKLSQSAEILYAALQQQDEITERLGRLYTYAHMRYDQDTTNSFYQGLNDRAQTLASQVGQAASFVVPELMSIEKEKIDTFLNEHEPLTLYRHMLDELNKQRPHVLSEAEESILAQASEVTSAPSNTFGMLNNADMTFPTIVNENGEEVEVTHGRYL,soluble
16,MTQHPFISRVAVRNYKSIGYCDVNLRPLTYLVGHNGAGKSNFMDALHFVCDALSYSLDSALNERGGINEVRRRSGGHPTHFALRVEFVMQSGQAGRYGFVIGALKNGGYEVQREECVVAGIGKGPFFRIEKGKLRDSSETTFPSVTADRLALVAASGLTAFRPVFDALTAMGFYNLNPKLMRELQKPQDGRLLRPAGENIASVIGHLEKVAPAQMALIQEYLHSVAPMVHGVERKPIGPMETLEFRQDMAGSKHPWRFLAQNMSDGTLRALGVLSALLQGNVDYSPTLIGIEEPETALHPAASAALREALVRASETTQVLVTSHSPDLLDDHSIDADAVLAVVSEAGETKVAPLDEGSRQVMRDHLFSAGELLRMNQLAPDRASLEQQDKAASGDLFGETESVLEHHHHHH,soluble
17,MSLTLKLGFKPFSFHLLRSLRTSQGIIKKKEGWLIKLENKTGRLGWGEIAPLNLSELNICGKILEKLGNSPSRQTLEEGIPNWPGSLAFAIGAALAEIDYLIGNDSKNKWLSVTSSALLLPNEESILLNTLQSVLDKHKETQKELTFKWKIRNTSSDSDLNLLKKILFLLPENTRLRIDANGGLNRIQAHEWAQALQNEARIEWLEQPLAVDDIEGMNELAQMLPIALDESLIYNPSLRKSWTGWQIRRPLIEGDPRILLKEFKEKNSYISISTSFETGIGKRWIEHFAALQLRGLTPTQPGLAPGWCPKGPLFCQNPQLVWEAAEGHHHHHH,soluble
18,MTAHPPRPELQIDIVSDVVCPWCIVGFRQLDQALAATGVLARLRWHPFELNPQMGPEGQNLREHIMEKYGSTPEQSAEARARLTAIGAELGFTFNFTDDSRIVNTFAAHQLLDWAEGQGRQHPLKQALFAAYFTDGRDVSDLSVLLDAVEAAGLDREAAQTALTSGAHQAPVREKQKFWAQHGISGVPSMVFGGKYLLTGAQGADTYAQVIQRCLAEAA,not soluble
19,PELPEVETSRRGIEPHLVGATILHAVVRNGRLRWPVSEEIYRLSDQPVLSVQRRAKYLLLELPEGWIIIHLGMSGSLRILPEELPPEKHDHVDLVMSNGKVLRYTDPRRFGAWLWTKELEGHNVLTHLGPEPLSDDFNGEYLHQKCAKKKTAIKPWLMDNKLVVGVGNIYASESLFAAGIHPDRLASSLSLAECELLARVIKAVLLRSIEQGGTTLKDFLQSDGKPGYFAQELQVYGRKGEPCRVCGTPIVATKHAQRATFYCRQCQK,soluble
20,MKDVVIVGALRTPIGCFRGALAGHSAVELGSLVVKALIERTGVPAYAVDEVILGQVLTAGAGQNPARQSAIKGGLPNSVSAITINDVCGSGLKALHLATQAIQCGEADIVIAGGQENMSRAPHVLTDSRTGAQLGNSQLVDSLVHDGLWDAFNDYHIGVTAENLAREYGISRQLQDAYALSSQQKARAAIDAGRFKDEIVPVMTQSNGQTLVVDTDEQPRTDASAEGLARLNPSFDSLGSVTAGNASSINDGAAAVMMMSEAKARALNLPVLARIRAFASVGVDPALMGIAPVYATRRCLERVGWQLAEVDLIEANEAFAAQALSVGKMLEWDERRVNVNGGAIALGHPIGASGCRILVSLVHEMVKRNARKGLATLCIGGGQGVALTIERDE,soluble
21,VGEVNLSARGNFTFARNEILEYDQVPQVYPWLEKKGTRLNSWKLYIADGLYTADDFNITGEGLNRQYELKPGVVSGLSSGVRPGDIKYKDLNGDGKIDSNDQMEDVGNPSVPEIVYGFGLNAEWKGAYVGIFFQGSGNTSTVLGASSNGAFFPFQWGVEESAVRSEVANRWTEQNPSQNVMFPRMHSTNYDNNTAASTWWLRNASFLRLKNIEVGYNFKEKTLKKIGIQALRVYLQGNNLCVWDDIKMWDPELGNTNGGFSYPLSRTFTFGLDFTF,not soluble
